For the data set, the system named is beta-Gal^PR, engineered E. coli beta-galactosidase with the HIV p6/PR cleavage site decapeptide inse [β-galactosidase: P00722].

In turn, “TF-PR^D25N, HIV protease precursor with the D25N mutation at the catalytic residue Asp25” had a β-galactosidase activity of 0.178 µmol/min/mg.

The record behind these values is patent US20050244819.
